# Experimental data from PMC10855774, “Role of Spexin in White Adipose Tissue Thermogenesis under Basal and Cold-Stimulated Conditions” (International Journal of Molecular Sciences, 2024).
# Columns and labels:
# [1] = Daily caloric intake and body weight of SPX-treated mice at RT or cold; assay type: in vivo; conditions: for body weight change: C × S p < 0.05
# Description: (§1) Normal adult male C57BL/6 mice (four months of age) were kept in a temperature-controlled environment (20–22 °C and a fixed 12 h light/12 h dark cycle; lights on at 07:00 h) and fed ad libitum with Purina commercial rat/mouse chow (Ganave, Buenos Aires, Argentina, L0723/1). Mice were injected with SPX or PBS (29 µg/kg/day, Tocris, Bristol, UK) for ten days (the SPX and CTR groups, respectively). On the third day of the protocol, each group was subdivided into two other groups: one exposed to cold (4 °C, CTR-C and SPX-C, n = 12 mice for each group) and another one housed at RT (CTR and SPX, n = 15 mice for each group) (Figure 1). Food intake and body weight were measured every day. On the experimental day (day 10), the mice were euthanized under non-fasting conditions (08:00 to 09:00 h), and their trunk blood was collected; plasma samples were then frozen (–80 °C) until the metabolite measurement. Inguinal AT (IAT, subcutaneous depot), epididymal AT (EAT, visceral depot), and brown AT (BAT, subcutaneous depot) were aseptically dissected and weighed. These depots were kept at –80 °C for further procedures. Animals were euthanized according to protocols for animal use, in agreement with the NIH guidelines for the care and use of experimental animals. All experiments were approved by our Institutional Animal Care Committee (Approval code: 6NE-2023).
# galr2 = galr2 mRNA expression in AT depots (qRT-PCR); assay type: in vivo, mice; conditions: RT and cold
# Description: as §1
# (§2) Total RNA was isolated from cells by the Trizol extraction method (Invitrogen, Life Technology, Waltham, MA, USA) and reverse-transcribed using random primers (250 ng) and RevertAid Reverse Transcriptase (200 U/µL, Thermo Scientific, Waltham, MA, USA). […] The expression levels were analyzed for β-actin (βactin, […] gene), Uncoupling Protein 1 (ucp1), proliferator-activated receptor gamma coactivator-1 alpha (pgc1α), cytochrome-c oxidase subunit 8b (cox8b), galanin receptors 2 and 3 (galr2 and galr3, respectively), and Spexin (spx). […] The relative changes in the expression level of each gene (ΔΔCt) were calculated by the ΔCt method.
# cox8b = cox8b mRNA expression in AT depots (qRT-PCR); assay type: in vivo, mice; conditions: cold, SPX-C vs. CTR-C, C × S p < 0.001
# Description: as §1, §2
molecule,measurement,setting,value
"Spexin (peptide, UniProt Q9BT56 27-116, looked up, Spexin, novel adipokine, a peptide of 14 amino acids of the galanin family; purchased from Tocris) Spexin: APQRLLERRNWTPQAMLYLKGAQGRRFISDQSRRKDLSDRPLPERRSPNPQLLTIPEAATILLASLQKSPEDEEKNFDQTRFLEDSLLNW",correlation between initial body weight and body weight loss after SPX treatment,"[1]; SPX and SPX-C mice, basal and cold-stimulated conditions, Pearson correlation, p < 0.01",significant positive correlation
same,caloric intake,"[1]; male C57BL/6 mice, SPX 29 µg/kg/day for ten days, RT or cold (4 °C) from day 3, vs. CTR, repeated measures ANOVA, n = 6–9",no differences were observed due to the SPX treatment
same,body weight change,"[1]; male C57BL/6 mice, SPX 29 µg/kg/day for ten days, basal conditions (RT), SPX vs. CTR",lost body weight vs. CTR ones
same,body weight change,"[1]; male C57BL/6 mice, SPX 29 µg/kg/day for ten days, cold (4 °C) from day 3, SPX-C vs. CTR-C",lost less weight than their CTR-C counterparts
same,galr2 mRNA expression in EAT,galr2; S p < 0.01,decreased in both groups treated with SPX
same,galr2 mRNA expression in IAT,galr2; S p < 0.01,decreased in both groups treated with SPX
same,galr2 mRNA expression in BAT,galr2; Supplementary Figure S3,no differences were found
same,cox8b mRNA expression in EAT,cox8b,inhibitory effect of SPX under cold conditions
same,cox8b mRNA expression in IAT,cox8b,inhibitory effect of SPX under cold conditions
same,cox8b mRNA expression in BAT,cox8b; Supplementary Figure S2c,inhibitory effect of SPX under cold conditions
